{"source": "patent US20190002539A1", "about": "(NATIONAL CENTER FOR AIDS STD CONTROL AND PREVENTION CHINESE …, published 2019)", "binders": {"B1": {"name": "monoclonal antibody DRVIA7H+VRC01L (antibody, V domains shown)", "VH": "QVQLVESGTQFRRPGASVRLSCEASGYTFISSFIHWIRQGPGQGLEWMGWMNPRHGAVNYPRRFQGKVTMTRDTSIDTAYMELRDLRSDDTAMYFCVTSRTKDYDWDFVWGQGTLVVVSS", "VL": "EIVLTQSPGTLSLSPGETAIISCRTSQYGSLAWYQQRPGQAPRLVIYSGSTRAAGIPDRFSGSRWGPDYNLTISNLESGDFGVYYCQQYEFFGQGTKVQVDI"}}, "key": {"wild-type (WT) YU2 gp120": {"target": "T1, wild-type (WT) YU2 gp120 (HIV-1, UniProt P35961 32-498)", "T1 construct": "domain: gp120", "assay": "ELISA, antigen coated at 2 µg/ml"}, "[1]": {"target": "HIV-1 Env of pseudovirus MW965 (HIV-1)", "assay": "cell-based or functional assay"}, "[2]": {"target": "HIV-1 Env of pseudovirus ZM109F (HIV-1)", "assay": "cell-based or functional assay"}, "[3]": {"target": "HIV-1 Env of pseudovirus CH117 (HIV-1)", "assay": "cell-based or functional assay"}, "[4]": {"target": "HIV-1 Env of pseudovirus Q461 (HIV-1)", "assay": "cell-based or functional assay"}, "[5]": {"target": "HIV-1 Env of pseudovirus CH120 (HIV-1)", "assay": "cell-based or functional assay"}, "[6]": {"target": "HIV-1 Env of pseudovirus RHPA4259 (HIV-1)", "assay": "cell-based or functional assay"}, "[7]": {"target": "HIV-1 Env of pseudovirus BJMSM2249 (HIV-1)", "assay": "cell-based or functional assay"}, "[8]": {"target": "HIV-1 Env of pseudovirus CAAN5342 (HIV-1)", "assay": "cell-based or functional assay"}, "[9]": {"target": "HIV-1 Env of pseudovirus QH0692 (HIV-1)", "assay": "cell-based or functional assay"}, "[10]": {"target": "HIV-1 Env of pseudovirus AC10 (HIV-1)", "assay": "cell-based or functional assay"}, "[11]": {"target": "HIV-1 Env of pseudovirus REJO4541 (HIV-1)", "assay": "cell-based or functional assay"}, "[12]": {"target": "HIV-1 Env of pseudovirus Q769 (HIV-1)", "assay": "cell-based or functional assay"}, "[13]": {"target": "HIV-1 Env of pseudovirus CH110 (HIV-1)", "assay": "cell-based or functional assay"}, "[14]": {"target": "HIV-1 Env of pseudovirus BJMSM2498 (HIV-1)", "assay": "cell-based or functional assay"}, "[15]": {"target": "HIV-1 Env of pseudovirus CAP45 (HIV-1)", "assay": "cell-based or functional assay"}, "[16]": {"target": "HIV-1 Env of pseudovirus BJMSM2316 (HIV-1)", "assay": "cell-based or functional assay"}, "[17]": {"target": "HIV-1 Env of pseudovirus TRJO4551 (HIV-1)", "assay": "cell-based or functional assay"}, "[18]": {"target": "HIV-1 Env of pseudovirus PV0.4 (HIV-1)", "assay": "cell-based or functional assay"}, "[19]": {"target": "HIV-1 Env of pseudovirus Q259 (HIV-1)", "assay": "cell-based or functional assay"}, "[20]": {"target": "HIV-1 Env of pseudovirus SC422661 (HIV-1)", "assay": "cell-based or functional assay"}, "[21]": {"target": "HIV-1 Env of pseudovirus Du422 (HIV-1)", "assay": "cell-based or functional assay"}, "[22]": {"target": "HIV-1 Env of pseudovirus ZM249M (HIV-1)", "assay": "cell-based or functional assay"}, "[23]": {"target": "HIV-1 Env of pseudovirus SF162 (HIV-1, UniProt P19550 32-847)", "assay": "cell-based or functional assay"}, "[24]": {"target": "HIV-1 Env of pseudovirus Q842 (HIV-1)", "assay": "cell-based or functional assay"}, "[25]": {"target": "HIV-1 Env of pseudovirus CH181 (HIV-1)", "assay": "cell-based or functional assay"}, "[26]": {"target": "HIV-1 Env of pseudovirus 398-F1 (HIV-1)", "assay": "cell-based or functional assay"}, "[27]": {"target": "HIV-1 Env of pseudovirus TRO.11 (HIV-1)", "assay": "cell-based or functional assay"}, "[28]": {"target": "HIV-1 Env of pseudovirus X2278 (HIV-1)", "assay": "cell-based or functional assay"}, "[29]": {"target": "HIV-1 Env of pseudovirus CH119.10 (HIV-1)", "assay": "cell-based or functional assay"}, "[30]": {"target": "HIV-1 Env of pseudovirus Ce1176 (HIV-1)", "assay": "cell-based or functional assay"}, "[31]": {"target": "HIV-1 Env of pseudovirus CNE55 (HIV-1)", "assay": "cell-based or functional assay"}, "[32]": {"target": "HIV-1 Env of pseudovirus 25710 (HIV-1)", "assay": "cell-based or functional assay"}, "[33]": {"target": "HIV-1 Env of pseudovirus X1632 (HIV-1)", "assay": "cell-based or functional assay"}, "[34]": {"target": "HIV-1 Env of pseudovirus Ce0217 (HIV-1)", "assay": "cell-based or functional assay"}, "[35]": {"target": "HIV-1 Env of pseudovirus 246 (HIV-1)", "assay": "cell-based or functional assay"}, "[36]": {"target": "HIV-1 Env of pseudovirus BJOX2000 (HIV-1)", "assay": "cell-based or functional assay"}, "[37]": {"target": "HIV-1 Env of pseudovirus CNE8 (HIV-1)", "assay": "cell-based or functional assay"}}}
{"binder": "B1", "values": [{"measurement": "binding result", "setting": "wild-type (WT) YU2 gp120", "result": "binds"}, {"measurement": "IC50 in µg/ml, TZM-bl/pseudovirus neutralizing assay", "setting": "[1]", "result": 0.2, "unit": "µg/mL"}, {"measurement": "IC50 in µg/ml, TZM-bl/pseudovirus neutralizing assay", "setting": "[2]", "result": 0.59, "unit": "µg/mL"}, {"measurement": "IC50 in µg/ml, TZM-bl/pseudovirus neutralizing assay", "setting": "[3]", "result": 0.59, "unit": "µg/mL"}, {"measurement": "IC50 in µg/ml, TZM-bl/pseudovirus neutralizing assay", "setting": "[4]", "result": 1.4, "unit": "µg/mL"}, {"measurement": "IC50 in µg/ml, TZM-bl/pseudovirus neutralizing assay", "setting": "[5]", "result": 6.53, "unit": "µg/mL"}, {"measurement": "IC50 in µg/ml, TZM-bl/pseudovirus neutralizing assay", "setting": "[6]", "result": 0.34, "unit": "µg/mL"}, {"measurement": "IC50 in µg/ml, TZM-bl/pseudovirus neutralizing assay", "setting": "[7]", "result": 2.25, "unit": "µg/mL"}, {"measurement": "IC50 in µg/ml, TZM-bl/pseudovirus neutralizing assay", "setting": "[8]", "result": 3.4, "unit": "µg/mL"}, {"measurement": "IC50 in µg/ml, TZM-bl/pseudovirus neutralizing assay", "setting": "[9]", "result": 2.03, "unit": "µg/mL"}, {"measurement": "IC50 in µg/ml, TZM-bl/pseudovirus neutralizing assay", "setting": "[10]", "result": 15.5, "unit": "µg/mL"}, {"measurement": "IC50 in µg/ml, TZM-bl/pseudovirus neutralizing assay", "setting": "[11]", "result": 0.75, "unit": "µg/mL"}, {"measurement": "IC50 in µg/ml, TZM-bl/pseudovirus neutralizing assay", "setting": "[12]", "result": 0.3, "unit": "µg/mL"}, {"measurement": "IC50 in µg/ml, TZM-bl/pseudovirus neutralizing assay", "setting": "[13]", "result": 0.15, "unit": "µg/mL"}, {"measurement": "IC50 in µg/ml, TZM-bl/pseudovirus neutralizing assay", "setting": "[14]", "result": 4.32, "unit": "µg/mL"}, {"measurement": "IC50 in µg/ml, TZM-bl/pseudovirus neutralizing assay", "setting": "[15]", "result": 0.84, "unit": "µg/mL"}, {"measurement": "IC50 in µg/ml, TZM-bl/pseudovirus neutralizing assay", "setting": "[16]", "result": 0.47, "unit": "µg/mL"}, {"measurement": "IC50 in µg/ml, TZM-bl/pseudovirus neutralizing assay", "setting": "[17]", "result": 1.44, "unit": "µg/mL"}, {"measurement": "IC50 in µg/ml, TZM-bl/pseudovirus neutralizing assay", "setting": "[18]", "result": 1.18, "unit": "µg/mL"}, {"measurement": "IC50 in µg/ml, TZM-bl/pseudovirus neutralizing assay", "setting": "[19]", "result": "> 20", "unit": "µg/mL"}, {"measurement": "IC50 in µg/ml, TZM-bl/pseudovirus neutralizing assay", "setting": "[20]", "result": 0.58, "unit": "µg/mL"}, {"measurement": "IC50 in µg/ml, TZM-bl/pseudovirus neutralizing assay", "setting": "[21]", "result": "> 20", "unit": "µg/mL"}, {"measurement": "IC50 in µg/ml, TZM-bl/pseudovirus neutralizing assay", "setting": "[22]", "result": 0.74, "unit": "µg/mL"}, {"measurement": "IC50 in µg/ml, TZM-bl/pseudovirus neutralizing assay", "setting": "[23]", "result": 0.3, "unit": "µg/mL"}, {"measurement": "IC50 in µg/ml, TZM-bl/pseudovirus neutralizing assay", "setting": "[24]", "result": 0.18, "unit": "µg/mL"}, {"measurement": "IC50 in µg/ml, TZM-bl/pseudovirus neutralizing assay", "setting": "[25]", "result": 0.98, "unit": "µg/mL"}, {"measurement": "IC50 in µg/ml, TZM-bl/pseudovirus neutralizing assay", "setting": "[26]", "result": 0.8, "unit": "µg/mL"}, {"measurement": "IC50 in µg/ml, TZM-bl/pseudovirus neutralizing assay", "setting": "[27]", "result": 1.18, "unit": "µg/mL"}, {"measurement": "IC50 in µg/ml, TZM-bl/pseudovirus neutralizing assay", "setting": "[28]", "result": 0.34, "unit": "µg/mL"}, {"measurement": "IC50 in µg/ml, TZM-bl/pseudovirus neutralizing assay", "setting": "[29]", "result": 1.85, "unit": "µg/mL"}, {"measurement": "IC50 in µg/ml, TZM-bl/pseudovirus neutralizing assay", "setting": "[30]", "result": 4.08, "unit": "µg/mL"}, {"measurement": "IC50 in µg/ml, TZM-bl/pseudovirus neutralizing assay", "setting": "[31]", "result": 1.23, "unit": "µg/mL"}, {"measurement": "IC50 in µg/ml, TZM-bl/pseudovirus neutralizing assay", "setting": "[32]", "result": 2.5, "unit": "µg/mL"}, {"measurement": "IC50 in µg/ml, TZM-bl/pseudovirus neutralizing assay", "setting": "[33]", "result": 0.61, "unit": "µg/mL"}, {"measurement": "IC50 in µg/ml, TZM-bl/pseudovirus neutralizing assay", "setting": "[34]", "result": 0.65, "unit": "µg/mL"}, {"measurement": "IC50 in µg/ml, TZM-bl/pseudovirus neutralizing assay", "setting": "[35]", "result": 1.29, "unit": "µg/mL"}, {"measurement": "IC50 in µg/ml, TZM-bl/pseudovirus neutralizing assay", "setting": "[36]", "result": 15.9, "unit": "µg/mL"}, {"measurement": "IC50 in µg/ml, TZM-bl/pseudovirus neutralizing assay", "setting": "[37]", "result": 1.48, "unit": "µg/mL"}]}
